In patent publication US20110124572A1 (published 2011):

Molecular target: small GTPase Rac1 (UniProt P63000 1-189)
Test: immunoprecipitation with Tiam-1 antiserum from MCF-7 line lysates, blot with anti-Rac1
Method: In brief, 70% confluent cultures of 25 mL flask were detached, pelleted and following 2 times washing with PBS. The pellet were lysed in RIPA buffer then centrifuged and the supernatant was pre-cleared by addition of 5 μL of protein A/G-sepharose beads slurry (Pierce) for 2 hours, then the supernatant was incubated with the antibody of interest for 24 hours. 10 μL of protein A/G slurry was added for 2 hours, collected by pulse centrifugation, washed 3 times with lysis buffer, resuspended in 2×SDS loading buffer subjected to SDS-PAGE, followed by immunoblotting with the appropriate antibodies.

- binding result: binds
B1: Tiam-1, Rac1-specific guanine nucleotide exchange factor (RacGEF) (enzyme)
chain: GNAESQHVEHEFYGEKHASLGRKHTSRSLRLSHKTRRTRHASSGKVIHRNSEVSTRSSSTPSIPQSLAENGLEPFSQDGTLEDFGSPIWVDRVDMGLRPVSYTDSSVTPSVDSSIVLTAASVQSMPDTEESRLYGDDATYLAEGGRRQHSYTSNGPTFMETASFKKKRSKSADIWREDSLEFSLSDLSQEHLTSNEEILGSAEEKDCEEARGMETRASPRQLSTCQRANSLGDLYAQKNSGVTANGGPGSKFAGYCRNLVSDIPNLANHKMPPAAAEETPPYSNYNTLPCRKSHCLSEGATNPQISHSNSMQGRRAKTTQDVNAGEGSEFADSGIEGATTDTDLLSRRSNATNSSYSPTTGRAFVGSDSGSSSTGDAARQGVYENFRRELEMSTTNSESLEEAGSAHSDEQSSGTLSSPGQSDILLTAAQGTVRKAGALAVKNFLVHKKNKKVESATRRKWKHYWVSLKGCTLFFYESDGRSGIDHNSIPKHAVWVENSIVQAVPEHPKKDFVFCLSNSLGDAFLFQTTSQTELENWITAIHSACATAVARHHHKEDTLRLLKSEIKKLEQKIDMDEKMKKMGEMQLSSVTDSKKKKTILDQIFVWEQNLEQFQMDLFRFRCYLASLQGGELPNPKRLLAFASRPTKVAMGRLGIFSVSSFHALVAARTGETGVRRRTQAMSRSASKRRSRFSSLWGLDTTSKKKQGRPSINQVFGEGTEAVKKSLEGIFDDIVPDGKREKEVVLPNVHQHNPDCDIWVHEYFTPSWFCLPNNQPALTVVRPGDTARDTLELICKTHQLDHSAHYLRLKFLIENKMQLYVPQPEEDIYELLYKEIEICPKVTQSIHIEKSDTAADTYGFSLSSVEEDGIRRLYVNSVKETGLASKKGLKAGDEILEINNRAADALNSSMLKDFLSQPSLGLLVRTYPELEEGVELLESPPHRVDGPADLGESPLAFLTSNPGHSLCSEQGSSAETAPEETEGPDLESSDETDHSSKSTEQVAAFCRSLHEMNPSDQSPSPQDSTGPQLATMRQLSDADKLRKVICELLETERTYVKDLNCLMERYLKPLQKETFLTQDELDVLFGNLTEMVEFQVEFLKTLEDGVRLVPDLEKLEKVDQFKKVLFSLGGSFLYYADRFKLYSAFCASHTKVPKVLVKAKTDTAFKAFLDAQNPKQQHSSTLESYLIKPIQRILKYPLLLRELFALTDAESEEHYHLDVAIKTMNKVASHINEMQKIHEEFGAVFDQLIAEQTGEKKEVADLSMGDLLLHTTVIWLNPPASLGKWKKEPELAAFVFKTAVVLVYKDGSKQKKKLVGSHRLSIYEDWDPFRFRHMIPTEALQVRALASADAEANAVCEIVHVKSESEGRPERVFHLCCSSPESRKDFLKAVHSILRDKHRRQLLKTESLPSSQQYVPFGGKRLCALKGARPAMSRAVSAPSKSLGRRRRRLARNRFTIDSDAVSASSPEKESQQPPGGGDTDRWVEEQFDLAQYEEQDDIKETDILSDDDEFCESVKGASVDRDLQERLQATSISQRERGRKTLDSHASRMAQLKKQAALSGINGGLESASEEVIWVRREDFAPSRKLNTEI
notes: Endogenous protein in MCF-7 cell lysate
